Data as given in the supplement of paper PMC12042874.
± gives the uncertainty stated by the source.

Assay: amyloid nucleation score (Sup35N fusion, yeast selection) (log enrichment); library NNK3; higher = more nucleation; inactive = no reads after selection
How it was run: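 The nucleation score equals the log enrichment of output over input reads from DiMSum, centred on the mode score of non-aggregating sequences. It was computed only for sequences with 100 or more input reads. The reads came from Illumina sequencing of plasmid inserts from psi-negative yeast expressing Sup35N fused to peptides of 20 random codons, induced with 100 μM copper sulfate for 24 hours and grown 7 days at 30°C without adenine and uracil.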

| Substance | amyloid nucleation score |
| --- | --- |
| VRVLDWNLMHFFFSYKRFLQ | -0.094 ± 0.25 |
| LLCMWFCKSRLPRCSKCCSR | inactive |
| MRSTNLACAGMHIN | inactive |
| ILRFGHPWDRRSK | inactive |
| LRRMDQMANDLFAI | inactive |
| TQNLNRRGKIRVVRDYIDYW | 0.554 ± 0.15 |
| YNAYLKENLILLYLCRSSRE | 2.17 ± 0.063 |
| TYWVGWML | inactive |
| GQFANPVK | inactive |
| RTIQFPS | inactive |
| MNGIGNYLDTYMGSCHVEDM | inactive |
| VIGTGN | inactive |
| YLSINTAEYHFQEQVLVFVY | inactive |
| WLQGCRSRWAVVL | inactive |
| DVLGCPNMEVCWSGFLSQNY | inactive |
| FVNCLCKRARYYSSGGLSSP | -0.512 ± 1.4 |
| SLYRSEVMVHAVVVYVYFGK | inactive |
| SMSGWCVETFLRQEM | inactive |
| HSCFCQCVSARYCDYSSVTR | inactive |
| LLLIWWNLALNLKLFFELKV | inactive |
| DYYIAPRVPYHVTTWNKDYL | inactive |
| FGICVDVGRAHIVKRSNRML | inactive |
| VFGPLYSSYDIRQ | inactive |

| Substance | amyloid nucleation score |
| --- | --- |
| GKKMKEGCSSNISIVELSRN | inactive |
| YYKRYGGYPGNQHMSVGHRF | inactive |
| FVLHNS | inactive |
| LYSLT | inactive |
| DNSVNKYKKTNVSVISARVR | inactive |
| GCREICFNLCFKRSLTCALL | inactive |
| MCFGKYLSL | inactive |
| NQRSAILVGPSRNLQY | inactive |
| RASMYG | inactive |
| SSGKFIVLGRNAWTLAWTLT | inactive |
| PFGVKSMLAVYTHYVFGATV | inactive |
| GSMVVEFMYYHPTPTRGAWA | 0.8 ± 0.17 |
| FFYNYSRSGLCYIIFSESPV | 1.33 ± 0.095 |
| TLNLVSSTICLFR | inactive |
| SVLVIFVLLSIGSAVKLNYG | inactive |
| ADRMDGDSTGFYSTNLRGYS | inactive |
| FHNAFAFLSHWGVMVRSFEG | inactive |
| YYYLKCFTYCVLLFYYS | inactive |
| IQYRGYGYMNSIWYGVERFF | 0.626 ± 0.28 |
| FQFCS | inactive |
| HFITCELGFGDKGSIFFIAG | inactive |
| LPKCQLLLRRCRV | inactive |
| SLCRRWVNLDTGSPYGTL | inactive |

| Substance | amyloid nucleation score |
| --- | --- |
| VKLRPLCAVKIRRYLYVVRE | -0.054 ± 0.3 |
| TSLASNFANVTSVTCY | -0.679 ± 1 |
| QSTPYYLGFTD | 0.988 ± 0.11 |
| LVCFARVRKMEAEAFMKLVW | 0.64 ± 0.26 |
| RVWVMV | inactive |
| MHNRLVNDPACPVSTSSL | inactive |
| SVKLKLGLCFPLYVSGFGLL | inactive |
| YEDQRSLRFCR | inactive |
| SIMYFVTNGCGNGC | 1.79 ± 0.086 |
| LDVMTCNRLKVTVDFMCMNA | inactive |
| RGMCV | inactive |
| VDNIVVVCCFKDNCLSKG | 1.85 ± 0.09 |
| DEISSFER | inactive |
| LRFAYTFFWYVRFRVRICFN | inactive |
| RTLTLLYTFF | 2.56 ± 0.052 |
| TCTCGVFSD | inactive |
| QYCSSCLLWCMKSQGLDMTR | inactive |
| ENSSLFFLRDCELWWNVRTR | 1.59 ± 0.094 |
| SYVWYRNGM | inactive |
| VNDSAGVKLAVDCERTRKGG | -0.5 ± 0.98 |
| GFNVTWFEIYGGLEDSWWFC | inactive |
| PTFCNQNFGNTFGCKRFYLS | inactive |
| NVTTVFNKIPLPDSFNMRRW | 1.28 ± 0.084 |

| Substance | amyloid nucleation score |
| --- | --- |
| RGRGAPCARFRNVYGMPFFY | inactive |
| VRRVQSLRPPAHVSLAPYRA | inactive |
| ERFRSLSGTVEEG | inactive |
| SYWLQSPYDTESMSGFLLQI | inactive |
| GLVVVT | inactive |
| DFWRYDSS | inactive |
| GIVTLSA | inactive |
| IFVQAYLRGSEICALGDWRL | inactive |
| GCNHC | inactive |
| HRKSGMVIYFTVPWFMKRNC | inactive |
| KRSPKIQDL | inactive |
| RDIISMIVGWVLLQYLTTTY | -0.888 ± 1 |
| DINCSWTLQNGRGTLSE | inactive |
| RFNTDSQPAVMIVFRYNRLR | inactive |
| YKLERTRPDSFMVCERINGH | inactive |
| VRFTHKCSLG | inactive |
| INLGMP | -0.279 ± 0.52 |
| SWSTSNVVLNL | 1.99 ± 0.072 |
| TRSFCVSK | inactive |
| GLDRI | inactive |
| RVRDCSHRLLDIFVYLCGNT | inactive |
| CRRPKRNH | inactive |
| VCVRKLELGDCLKCG | inactive |

| Substance | amyloid nucleation score |
| --- | --- |
| RWSILDGHHNVVLSVPSKS | inactive |
| IVVNT | inactive |
| WILSNRWKFHLVGLVIAFV | inactive |
| SWGFHEWSVACQICRYVDRP | inactive |
| TPLITYHQWFLAICEWLDF | inactive |
| EMLGHHVGSLINRRVITVLR | inactive |
| VRGGHSTTGI | inactive |
| SMSWRSHEAMCTGSYFNLCD | inactive |
| NNFKGFFRRFTVGCSRTPPT | inactive |
| RQVTLARWTISIC | inactive |
| RRRGNKAFHPLQ | inactive |
| QSLVPSFDPNLCQVGVLYCC | -0.654 ± 0.84 |
| PTLLTMRQEQRHAKNFRSNL | inactive |
| FLLVYWLVLVFPIVGNLMPE | inactive |
| CVVVETLLNMRRSRY | inactive |
| TKSYFRINMFAVLDRCGLCR | inactive |
| VRNLVHHPYAFL | inactive |
| RWSNYMFDRQLY | -1.2 ± 1.8 |
| GSWMCVMLRVFCSCSWLYCS | -0.018 ± 0.93 |
| SHVLWDGTWEVGGGGHKA | inactive |
| VGFLWMQRVNEVDK | inactive |
| YLLVLMVERF | inactive |
| IEGSYIDMFLYSYLMSGSLI | inactive |

| Substance | amyloid nucleation score |
| --- | --- |
| SYSVSCTDGWSIVFMFSHIA | inactive |
| LVEVDDASNIDCEAAYCKWY | inactive |
| LVLAVVMTFRLRIRLSNLSR | inactive |
| YWNIFGVVSN | inactive |
| MLCHLVMTSSLSRFLDRGFR | 1.26 ± 0.1 |
| VNSMSC | inactive |
| LEWERPS | inactive |
| PNPYGNGIITWKN | inactive |
| ECLKVRW | inactive |
| LRPRYSAYILQSRR | inactive |
| LSYGRGVTVLYVLWSYFISR | inactive |
| KGSVMTCDSYTCFMLNSEVL | 1.47 ± 0.13 |
| VRGYLYRCKAGSLACHPDPG | inactive |
| HNLNLDGLMSKSSFTPMVLL | inactive |
| YGLTVCTTGLVFNNWMGSMV | 1.83 ± 0.11 |
| QCFCILDFMYWIHARSIM | inactive |
| RAMLLGFSCMVWVPWGQFGK | 0.649 ± 0.22 |
| TYIVAEANVRSVGDEQSMMN | inactive |
| GFSYVVNYVFFTDVKNTAAL | 2.17 ± 0.076 |
| MYVWLRCKLIGNSFLRVKCS | inactive |
| FQYKVSFPDRRASQKRWPLP | inactive |
| RPFGLAVTRWAPSFAGSRTS | inactive |
| ELVGIIDGCLKNMSSFTMRV | inactive |

| Substance | amyloid nucleation score |
| --- | --- |
| HNETKLCSHMLGVMGKNCGE | inactive |
| IHCSDVGALRMYVPSTGPFS | -0.213 ± 0.64 |
| ISLGCLYLFCYVTGCICSVG | 1.49 ± 0.094 |
| DGRSIEFIDGCDVYSICSRE | inactive |
| RLFTTLVRDLTENCIRFLWT | inactive |
| LSKHEAGTCRLVNDRTHYKA | inactive |
| VTAFATNKVC | inactive |
| YLLSMSENMRLALIECVAV | inactive |
| KVGTVLWCFTCSAGHRECNG | 2.75 ± 0.055 |
| VMWPIGSCDRE | inactive |
| GGLHSGVGKMAYELNMYS | inactive |
| SDIVCVKLEYT | inactive |
| LRHGSSEFNYGNFFLCLFEQ | 2.56 ± 0.075 |
| CISQVVVGSTHTAIGARAFA | inactive |
| QSYIRKQFRIQSHISFSDNS | inactive |
| TYKVFL | inactive |
| GKGCYLVVCDYTTCTKFLNM | inactive |
| PTNLYCHRMGEVSVYCRNLR | inactive |
| YSCLLIYVKYGMASIYGRMF | inactive |
| MVNAWLNRYKMWNVFIALNR | inactive |
| LSNDYCLRWVFMFKVMIRCD | inactive |
| MLREMY | inactive |
| SDRARRC | 0.163 ± 0.98 |
